Molecular target: T1, purified recombinant TRIP6 (UniProt Q15654 1-476)
T1 construct: TRIP6; source: purified recombinant protein
T1 sequence (looked up): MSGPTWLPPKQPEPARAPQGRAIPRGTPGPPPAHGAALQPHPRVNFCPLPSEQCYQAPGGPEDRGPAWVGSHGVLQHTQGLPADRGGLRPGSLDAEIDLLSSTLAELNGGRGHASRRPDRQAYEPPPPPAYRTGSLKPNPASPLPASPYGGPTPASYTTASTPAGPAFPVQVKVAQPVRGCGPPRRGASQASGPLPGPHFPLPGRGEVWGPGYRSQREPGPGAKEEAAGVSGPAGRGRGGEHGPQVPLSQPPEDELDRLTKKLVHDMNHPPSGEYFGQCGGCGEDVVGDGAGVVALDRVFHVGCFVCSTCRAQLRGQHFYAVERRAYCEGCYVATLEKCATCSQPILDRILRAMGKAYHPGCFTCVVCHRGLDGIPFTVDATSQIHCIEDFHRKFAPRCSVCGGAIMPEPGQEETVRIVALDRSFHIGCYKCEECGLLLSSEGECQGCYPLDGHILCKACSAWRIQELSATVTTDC
Assay: pull-down; purified recombinant TRIP6 incubated with GST, GST-TRAF6 or GST-CT, 4 °C, 3 h; anti-TRIP6 immunoblot
Conditions: both partners purified

binding result: binds
B1: GST-CT mutant containing residues 239–530 of TRAF6 (domain or fragment, UniProt P70196 239-530, looked up)
chain: PIPCTFSVFGCHEKMQRNHLARHLQENTQLHMRLLAQAVHNVNLALRPCDAASPSRGCRPEDPNYEETIKQLESRLVRQDHQIRELTAKMETQSMYVGELKRTIRTLEDKVAEMEAQQCNGIYIWKIGNFGMHLKSQEEERPVVIHSPGFYTGRPGYKLCMRLHLQLPTAQRCANYISLFVHTMQGEYDSHLPWPFQGTIRLTILDQSEALIRQNHEEVMDAKPELLAFQRPTIPRNPKGFGYVTFMHLEALRQGTFIKDDTLLVRCEVSTRFDMGGLRKEGFQPRSTDAGV
notes: TRAF6 carboxyl-terminal domain, residues 239-530; also called TRAF6-CT domain; carboxyl-terminal domain; source: purified recombinant GST-tagged protein (pGEX-6P3)

Reference: publication PMC4850058, “TRIP6 antagonizes the recruitment of A20 and CYLD to TRAF6 to promote the LPA2 receptor-mediated TRAF6 activation” (Cell Discovery, 2016)
